# Results from US20130115678.
# Substitutions are numbered along the chain they refer to.
# Tests used:
# Assay in all cases: cleavage_in_vitro
# [1] = system: T1, SphI (Streptomyces phaeochromogenes); conditions: NEB4, 37 C, Mg2+; FI NEB1-3: 64, 32, 64
# T1 sequence: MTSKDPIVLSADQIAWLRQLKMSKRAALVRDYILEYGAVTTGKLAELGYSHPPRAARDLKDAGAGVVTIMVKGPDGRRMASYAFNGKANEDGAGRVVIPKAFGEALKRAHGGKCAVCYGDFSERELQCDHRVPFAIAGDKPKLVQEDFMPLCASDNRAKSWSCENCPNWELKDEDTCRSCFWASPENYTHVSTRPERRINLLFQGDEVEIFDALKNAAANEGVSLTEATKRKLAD
# [2] = system: BstXI-HF N65A (Bacillus stearothermophilus); conditions: NEB4, 55 C, Mg2+; FI NEB1-3: >=120, >=250, >=16
# [3] = target: EcoRI (Escherichia coli RY13) (UniProt P00642); conditions: NEB4, 37 C, Mg2+; FI NEB1-3: 250, 4, 250
# [4] = target: T2, ScaI-HF H193A/S201F (Streptomyces caespitosus) (UniProt O52691); conditions: NEB4, 37 C, Mg2+; FI NEB1-3: 4000, 1000, 2000
# T2 sequence: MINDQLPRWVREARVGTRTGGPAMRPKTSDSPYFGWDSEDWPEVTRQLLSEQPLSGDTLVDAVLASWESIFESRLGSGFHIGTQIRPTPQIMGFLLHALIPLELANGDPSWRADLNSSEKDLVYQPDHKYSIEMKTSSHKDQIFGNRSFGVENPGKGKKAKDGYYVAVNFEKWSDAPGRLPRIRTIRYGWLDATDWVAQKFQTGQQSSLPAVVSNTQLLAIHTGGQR
# [5] = target: EcoRI-HF K62E (Escherichia coli RY13) (UniProt P00642); conditions: NEB4, 37 C, Mg2+; FI NEB1-3: 2000, 4000, 250
# [6] = target: T3, HindIII (Haemophilus influenzae Rd) (UniProt P43870); conditions: NEB4, 37 C, Mg2+; FI NEB1-3: 32, 250, 4000
# T3 sequence: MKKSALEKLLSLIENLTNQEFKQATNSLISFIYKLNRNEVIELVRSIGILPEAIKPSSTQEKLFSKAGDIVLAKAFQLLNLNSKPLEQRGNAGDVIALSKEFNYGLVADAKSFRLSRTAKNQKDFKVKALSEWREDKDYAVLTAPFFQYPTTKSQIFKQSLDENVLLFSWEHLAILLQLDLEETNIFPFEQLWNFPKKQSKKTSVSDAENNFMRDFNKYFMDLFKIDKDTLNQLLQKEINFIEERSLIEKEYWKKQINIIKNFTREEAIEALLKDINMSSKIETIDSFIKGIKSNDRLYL
# [7] = target: T4, PstI (Providencia stuartii 164) (UniProt P00640); conditions: NEB4, 37 C, Mg2+; FI NEB1-3: 64, 32, 120
# T4 sequence: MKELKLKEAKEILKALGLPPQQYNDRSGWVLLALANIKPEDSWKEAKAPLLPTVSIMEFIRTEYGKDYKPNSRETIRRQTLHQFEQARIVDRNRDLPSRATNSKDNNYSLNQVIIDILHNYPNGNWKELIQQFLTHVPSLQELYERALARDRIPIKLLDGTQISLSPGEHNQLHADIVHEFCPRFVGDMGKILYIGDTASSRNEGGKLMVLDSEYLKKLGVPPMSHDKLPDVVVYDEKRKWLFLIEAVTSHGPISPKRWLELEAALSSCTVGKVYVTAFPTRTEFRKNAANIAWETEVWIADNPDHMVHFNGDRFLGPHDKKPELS
# [8] = system: BstXI (Bacillus stearothermophilus); conditions: NEB4, 55 C, Mg2+; FI NEB1-3: 2, 2, 2
# [9] = target: T5, BamHI-HF E163A/E167T (Bacillus amyloliquefaciens) (UniProt P23940); conditions: NEB4, 37 C, Mg2+; FI NEB1-3: >=4000, >=4000, >=250
# T5 sequence: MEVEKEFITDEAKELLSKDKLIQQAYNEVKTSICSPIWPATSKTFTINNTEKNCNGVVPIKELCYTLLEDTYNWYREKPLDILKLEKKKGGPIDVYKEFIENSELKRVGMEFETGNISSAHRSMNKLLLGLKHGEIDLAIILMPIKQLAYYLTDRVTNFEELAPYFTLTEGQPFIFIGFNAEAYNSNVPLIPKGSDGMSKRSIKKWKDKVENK
# [10] = system: T6, SphI-HF K100A (Streptomyces phaeochromogenes); conditions: NEB4, 37 C, Mg2+; FI NEB1-3: 4000, 2000, 250
# T6 sequence: T1 sequence with K100A
# [11] = system: T7, SapI (Saccharopolyspora sp.); conditions: NEB4, 37 C, Mg2+; FI NEB1-3: 16, 64, 32
# T7 sequence: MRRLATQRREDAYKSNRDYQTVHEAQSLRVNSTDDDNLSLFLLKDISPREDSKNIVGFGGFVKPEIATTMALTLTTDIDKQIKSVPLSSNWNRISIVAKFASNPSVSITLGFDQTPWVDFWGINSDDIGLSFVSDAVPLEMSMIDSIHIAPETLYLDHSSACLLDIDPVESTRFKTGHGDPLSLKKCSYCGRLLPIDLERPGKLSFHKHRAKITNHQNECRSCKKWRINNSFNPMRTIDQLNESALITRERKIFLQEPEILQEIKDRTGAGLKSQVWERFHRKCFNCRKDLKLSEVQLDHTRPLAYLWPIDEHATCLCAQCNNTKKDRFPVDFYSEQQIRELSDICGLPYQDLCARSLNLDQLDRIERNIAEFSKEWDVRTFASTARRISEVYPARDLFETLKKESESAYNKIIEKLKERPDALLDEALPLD
substance,measurement,setting,value
lambda phage DNA,activity (fidelity index),[1],16
same,activity (fidelity index),[2],> 250
same,activity (fidelity index),[3],4
same,activity (fidelity index),[4],1000
same,activity (fidelity index),[5],16000
same,activity (fidelity index),[6],32
same,activity (fidelity index),[7],8
same,activity (fidelity index),[8],4
same,activity (fidelity index),[9],> 4000
same,activity (fidelity index),[10],8000
same,activity (fidelity index),[11],16
